Source: patent publication US20250064853A1 (GYALA THERAPEUTICS SOCIEDAD LIMITADA, published 2025)

T1: human CD84 on cells (human, UniProt Q9UIB8 22-345)
T1 construct: the cells were 300.19 cells stably transfected with CD84 full-length DNA, or Raji, Ramos, MOLM-13 cells, lymphocytes and monocytes with their own CD84; also called LY9B; SLAMF5
T1 sequence: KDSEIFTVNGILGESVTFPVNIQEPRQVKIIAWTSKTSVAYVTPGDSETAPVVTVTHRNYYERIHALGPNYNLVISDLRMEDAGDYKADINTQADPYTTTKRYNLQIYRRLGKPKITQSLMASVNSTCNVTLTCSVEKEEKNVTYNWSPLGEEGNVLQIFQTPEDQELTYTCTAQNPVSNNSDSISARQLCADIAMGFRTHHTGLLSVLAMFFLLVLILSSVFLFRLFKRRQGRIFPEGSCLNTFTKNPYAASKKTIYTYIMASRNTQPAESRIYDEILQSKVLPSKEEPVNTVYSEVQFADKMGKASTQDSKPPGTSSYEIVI

B1: GYCD84.5.171 (antibody, IgG1, V domains shown)
VH: EVQLVESGGGLVQPKGSLKLACAASGFTFNIYAMNWVRQAPGKGLEWVARIRSKSNNYARFYADSVKDRFTISRDDSQSMLYLQMNNLKTEDTAMYYCVRPLRSYFSMDYWGQGTSVTVSS
VL: SIVMTQSPKSMSMSVGERVTLSCKASENVDTYVSWYQQKPEQSPKLLIYGASNRYTGVPDRFTGSGSATDFTLTISSVKAEDLADYHCGQTYSYPWTFGGGTKLEIK
notes: tested as hybridoma supernatant
B2: 152-1D5 (antibody, IgG1, V domains shown)
VH: QVQLQQPGAEVVQPGTSVKLSCKASGYNFTNYWINWVKLRPGQGLEWIGDIYPVSGTTNYNEKFKRKATLTVDTSSSTGNMQLSSLASEDSALYYCASGTGRFAYWGQGTLVTVSA
VL: DIVLTQSPASLAVSLGQRATISCRASQSVSTSSYSYMHWYQQKPGQPPKLLIKFASNLESGVPARFSGSGSGTDFTLNIHPVEEEDTATYYCQHSWEIPYTFGGGTKLEIK
notes: tested as hybridoma supernatant; also called anti-CD84 mouse monoclonal antibody 152-1D5
B3: GYCD84.1-97 (antibody, IgG2a, V domains shown)
VH: QVQLQQPGAELVKPGTSVKLSCKASGYNFTSYWINWVKLRPGQGLEWIGDIYLGSGSTNYNEKFKSKATLTVDTSSSSAYMQLSSLVSEDSALYYCATSGGYLGYWGQGTTLTVSS
VL: B2 VL
notes: as for B1

Biological target: T1, human CD84 on cells
Assay: flow cytometry, hybridoma supernatant, 300.19 cells transfected with CD84

| 300.19-CD84 binding [%] | Binder |
| --- | --- |
| 93.2 | B1 |
| 92.5 | B2 |
| 97.7 | B3 |
